The results in this text go back to article PMC4893161, “The Dynamic Localization of Cytoplasmic Dynein in Neurons Is Driven by Kinesin-1” (Neuron, 2016).

For assay [1], the target named is T1, mCherry-tagged DIC1a (dynein intermediate chain 1, isoform a), wild-type (UniProt Q63100 1-643).
T1 construct: cytoplasmic dynein intermediate chain 1, neuron-specific isoform DIC1a with both alternatively spliced regions (AS loop 1 with WD1, AS loop 2 with WD2); also called WT DIC1a; source: COS cells, cotransfected, in lysate
Kind of assay: co-IP; COS cells cotransfected with mCherry-tagged DIC1a (wild-type or WD mutants) and HA-tagged KLC1 or KLC2; IP with anti-mCherry; western blotting with anti-DIC and anti-HA. To be noted: partners not purified.

The target of assay [2] is T2, WD1^pept, TAMRA-conjugated 11-amino-acid peptide centered on the first tryptophan motif of DIC1 (TAMRA-conjugated (position not given)).
T2 construct: 11 residues of dynein intermediate chain 1 centered on the first tryptophan motif (WD1) in AS loop 1; also called WD1 peptide; peptide of the first DIC1 tryptophan motif
Kind of assay: fluorescence polarisation; TAMRA-conjugated DIC1 tryptophan-motif peptides with purified KLC1 or KLC2 TPR domain; KD values determined at 150 mM NaCl. To be noted: both partners purified. (In general: Fluorescence polarisation rises when a labelled molecule tumbles more slowly, as on binding a larger partner.)

T1 sequence (Q63100 whole entry, canonical isoform): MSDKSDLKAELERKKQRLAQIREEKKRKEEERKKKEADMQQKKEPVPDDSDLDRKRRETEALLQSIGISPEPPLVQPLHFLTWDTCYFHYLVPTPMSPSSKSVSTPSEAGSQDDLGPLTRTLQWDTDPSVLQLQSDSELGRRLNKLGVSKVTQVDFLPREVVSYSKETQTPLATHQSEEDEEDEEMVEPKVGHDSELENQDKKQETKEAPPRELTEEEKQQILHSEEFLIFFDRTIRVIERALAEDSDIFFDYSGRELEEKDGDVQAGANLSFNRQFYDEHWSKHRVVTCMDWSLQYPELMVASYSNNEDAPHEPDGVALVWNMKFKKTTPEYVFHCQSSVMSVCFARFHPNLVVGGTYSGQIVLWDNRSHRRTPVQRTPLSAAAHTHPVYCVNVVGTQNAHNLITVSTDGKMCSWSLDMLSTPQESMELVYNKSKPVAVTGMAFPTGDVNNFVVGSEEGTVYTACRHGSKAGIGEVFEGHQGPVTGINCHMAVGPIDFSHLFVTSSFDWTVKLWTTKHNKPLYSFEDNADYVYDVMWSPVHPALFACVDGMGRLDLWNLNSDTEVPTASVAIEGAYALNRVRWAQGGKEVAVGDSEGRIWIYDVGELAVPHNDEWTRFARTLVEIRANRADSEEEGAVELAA

B1: HA-tagged KLC2 (kinesin light chain 2) (natural protein, UniProt O88448 1-599, looked up)
chain: MATMVLPREEKLSQDEIVLGTKAVIQGLETLRGEHRALLAPLASHEAGEAEPGSQERCLLLRRSLEAIELGLGEAQVILALSSHLGAVESEKQKLRAQVRRLVQENQWLREELAGTQQKLQRSEQAVAQLEEEKQHLLFMSQIRKLDEMLPQEEKGDVPKDSLDDLFPNEDEQSPAPSPGGGDVAAQHGGYEIPARLRTLHNLVIQYASQGRYEVAVPLCKQALEDLEKTSGHDHPDVATMLNILALVYRDQNKYKDAAHLLNDALAIREKTLGKDHPAVAATLNNLAVLYGKRGKYKEAEPLCKRALEIREKVLGKFHPDVAKQLSNLALLCQNQGKAEEVEYYYRRALEIYATRLGPDDPNVAKTKNNLASCYLKQGKYQDAETLYKEILTRAHEKEFGSVNGENKPIWMHAEEREESKDKRRDRRPMEYGSWYKACKVDSPTVNTTLRTLGALYRPEGKLEAAHTLEDCASRSRKQGLDPASQTKVVELLKDGSGRGHRRGSRDVAGPQSESDLEESGPAAEWSGDGSGSLRRSGSFGKLRDALRRSSEMLVRKLQGGGPQEPNSRMKRASSLNFLNKSVEEPVQPGGRVFLTAAL
notes: kinesin light chain 2; source: COS cells, cotransfected, in lysate
Turning to B1, the “fold co-immunoprecipitated relative to KLC1” value in assay [1] came out at 5 fold.

B2: KLC1^TPR, purified TPR domain of KLC1 (domain or fragment)
chain: YEIPARLRTLHNLVIQYASQGRYEVAVPSCKQALEDLEKTSGHDHPDVATMLNILALVYRDQNKYKDAANLLNDALAIREKTLGRDHPAVAATLNNLAVLYGKRGKYKEAEPLCKRALEIREKVLGKDHPDVAKQLNNLALLCQNQGKYEEVEYYYQRALGIYQTKLGPDRTPNVAKTKNNLASCYLKQGKFKQAETLYKEILTRAHEAEFGSVDDENKPIWMHAEEREECKGKQKDGSAFGEYGGWYKACKVDSPTVTTTLKNLGALYRRQGKFEAAETLEEAAMRSRKQGL
Usually Kd stands for the equilibrium constant for the complex coming apart. Regarding B2, the Kd in assay [2] was determined as 7.58 ± 0.61 µM.
